Target: Purified recombinant HuFCRN/B2MG, biotinylated (human) (UniProt P55899)
Assay: BLI (ForteBio Octet); biotinylated HuFCRN/B2MG on SA biosensors

Sequence of UniProt P55899 (P55899 24-297 limits assumed, chain 1 of 2): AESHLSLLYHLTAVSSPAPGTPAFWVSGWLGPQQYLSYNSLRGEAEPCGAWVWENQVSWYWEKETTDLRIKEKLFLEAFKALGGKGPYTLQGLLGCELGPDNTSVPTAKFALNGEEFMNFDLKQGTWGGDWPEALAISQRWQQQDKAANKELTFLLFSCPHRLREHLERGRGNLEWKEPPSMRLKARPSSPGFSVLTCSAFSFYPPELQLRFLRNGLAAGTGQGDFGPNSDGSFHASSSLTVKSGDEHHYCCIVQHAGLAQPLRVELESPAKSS
Sequence of UniProt P55899 (P61769 21-119 limits assumed, chain 2 of 2, further chain): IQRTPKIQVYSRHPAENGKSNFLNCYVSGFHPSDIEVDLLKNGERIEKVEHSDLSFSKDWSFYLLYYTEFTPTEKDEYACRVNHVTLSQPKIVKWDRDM

Question: Which Kd does the source give for “RITUXAN (Genentech), non-fused anti-CD20Ab (antibody)” here?
Answer: 69.7 nM
